Results on one substance are retold here after US20180051053A1.

The target of this test is Protein G (Protein G UltraLink resin, Pierce) (group G streptococci) (UniProt P19909). Put plainly: depletion of 100 µg IgG by Protein G resin beads (10 µL suspension); supernatant read by SDS-PAGE band pixels.

For IgG (antibody), the remaining antibody amount (unbound IgG left in supernatant) was found to be 3%.
